# Results as given in patent publication US20250218531A1 (ABSCI, published 2025).
# “And” between values parts separate entries of the source, which are not always exact repeats. Equal values may be shown once.
# Biological target: human epidermal growth factor receptor 2 (HER2) extracellular domain (human, UniProt P04626 23-629)
# Assay: SPR
Binder,Kd,log(KD (M))
"Trastuzumab HCDR3 variant TRYYGGYGYYFDY (Fab, V domains shown) VH: EVQLVESGGGLVQPGGSLRLSCAASGFNIKDTYIHWVRQAPGKGLEWVARIYPTNGYTRYADSVKGRFTISADTSKNTAYLQMNSLRAEDTAVYYCTRYYGGYGYYFDYWGQGTLVTVSS VL: not shown",41.6 nM,-7.38 log(M)
"Trastuzumab HCDR3 variant VRYPEVYGYYFDY (Fab, V domains shown) VH: EVQLVESGGGLVQPGGSLRLSCAASGFNIKDTYIHWVRQAPGKGLEWVARIYPTNGYTRYADSVKGRFTISADTSKNTAYLQMNSLRAEDTAVYYCVRYPEVYGYYFDYWGQGTLVTVSS VL: not shown",36.3 nM,-7.44 log(M)
"Trastuzumab HCDR3 variant ARDGHYFTYDY (Fab, V domains shown) VH: EVQLVESGGGLVQPGGSLRLSCAASGFNIKDTYIHWVRQAPGKGLEWVARIYPTNGYTRYADSVKGRFTISADTSKNTAYLQMNSLRAEDTAVYYCARDGHYFTYDYWGQGTLVTVSS VL: not shown",45.1 nM,-7.35 log(M)
"Trastuzumab HCDR3 variant AADGYRGTYSF (Fab, V domains shown) VH: EVQLVESGGGLVQPGGSLRLSCAASGFNIKDTYIHWVRQAPGKGLEWVARIYPTNGYTRYADSVKGRFTISADTSKNTAYLQMNSLRAEDTAVYYCAADGYRGTYSFWGQGTLVTVSS VL: not shown",79.2 nM,-7.1 log(M)
"Trastuzumab HCDR3 variant AAWYSTYYFDY (Fab, V domains shown) VH: EVQLVESGGGLVQPGGSLRLSCAASGFNIKDTYIHWVRQAPGKGLEWVARIYPTNGYTRYADSVKGRFTISADTSKNTAYLQMNSLRAEDTAVYYCAAWYSTYYFDYWGQGTLVTVSS VL: not shown",49.4 nM,-7.31 log(M)
"Trastuzumab HCDR3 variant AFPWAGHYMER (Fab, V domains shown) VH: EVQLVESGGGLVQPGGSLRLSCAASGFNIKDTYIHWVRQAPGKGLEWVARIYPTNGYTRYADSVKGRFTISADTSKNTAYLQMNSLRAEDTAVYYCAFPWAGHYMERWGQGTLVTVSS VL: not shown",95 nM,-7.02 log(M)
"Trastuzumab HCDR3 variant AINLRGYWMDN (Fab, V domains shown) VH: EVQLVESGGGLVQPGGSLRLSCAASGFNIKDTYIHWVRQAPGKGLEWVARIYPTNGYTRYADSVKGRFTISADTSKNTAYLQMNSLRAEDTAVYYCAINLRGYWMDNWGQGTLVTVSS VL: not shown",41.5 nM,-7.38 log(M)
"Trastuzumab HCDR3 variant AKYVASGYSLA (Fab, V domains shown) VH: EVQLVESGGGLVQPGGSLRLSCAASGFNIKDTYIHWVRQAPGKGLEWVARIYPTNGYTRYADSVKGRFTISADTSKNTAYLQMNSLRAEDTAVYYCAKYVASGYSLAWGQGTLVTVSS VL: not shown",109 nM,-6.96 log(M)
"Trastuzumab HCDR3 variant AKYVLVGSYGV (Fab, V domains shown) VH: EVQLVESGGGLVQPGGSLRLSCAASGFNIKDTYIHWVRQAPGKGLEWVARIYPTNGYTRYADSVKGRFTISADTSKNTAYLQMNSLRAEDTAVYYCAKYVLVGSYGVWGQGTLVTVSS VL: not shown",50.2 nM and 50.1 nM,-7.3 log(M)
"Trastuzumab HCDR3 variant ARFDLVGAFDY (Fab, V domains shown) VH: EVQLVESGGGLVQPGGSLRLSCAASGFNIKDTYIHWVRQAPGKGLEWVARIYPTNGYTRYADSVKGRFTISADTSKNTAYLQMNSLRAEDTAVYYCARFDLVGAFDYWGQGTLVTVSS VL: not shown",151 nM,-6.82 log(M)
"Trastuzumab HCDR3 variant ARYSYYRYYFE (Fab, V domains shown) VH: EVQLVESGGGLVQPGGSLRLSCAASGFNIKDTYIHWVRQAPGKGLEWVARIYPTNGYTRYADSVKGRFTISADTSKNTAYLQMNSLRAEDTAVYYCARYSYYRYYFEWGQGTLVTVSS VL: not shown",74.6 nM,-7.13 log(M)
"Trastuzumab HCDR3 variant ASYAGYSPFDY (Fab, V domains shown) VH: EVQLVESGGGLVQPGGSLRLSCAASGFNIKDTYIHWVRQAPGKGLEWVARIYPTNGYTRYADSVKGRFTISADTSKNTAYLQMNSLRAEDTAVYYCASYAGYSPFDYWGQGTLVTVSS VL: not shown",202 nM,-6.7 log(M)
"Trastuzumab HCDR3 variant ATGYSYLRFYD (Fab, V domains shown) VH: EVQLVESGGGLVQPGGSLRLSCAASGFNIKDTYIHWVRQAPGKGLEWVARIYPTNGYTRYADSVKGRFTISADTSKNTAYLQMNSLRAEDTAVYYCATGYSYLRFYDWGQGTLVTVSS VL: not shown",164 nM,-6.79 log(M)
"Trastuzumab HCDR3 variant ATGYSYLRYYD (Fab, V domains shown) VH: EVQLVESGGGLVQPGGSLRLSCAASGFNIKDTYIHWVRQAPGKGLEWVARIYPTNGYTRYADSVKGRFTISADTSKNTAYLQMNSLRAEDTAVYYCATGYSYLRYYDWGQGTLVTVSS VL: not shown",273 nM,-6.56 log(M)
"Trastuzumab HCDR3 variant ARGGYYGYWYYFDY (Fab, V domains shown) VH: EVQLVESGGGLVQPGGSLRLSCAASGFNIKDTYIHWVRQAPGKGLEWVARIYPTNGYTRYADSVKGRFTISADTSKNTAYLQMNSLRAEDTAVYYCARGGYYGYWYYFDYWGQGTLVTVSS VL: not shown",51.2 nM,-7.29 log(M)
"Trastuzumab HCDR3 variant ARLAFDSVSFYSDY (Fab, V domains shown) VH: EVQLVESGGGLVQPGGSLRLSCAASGFNIKDTYIHWVRQAPGKGLEWVARIYPTNGYTRYADSVKGRFTISADTSKNTAYLQMNSLRAEDTAVYYCARLAFDSVSFYSDYWGQGTLVTVSS VL: not shown",187 nM,-6.73 log(M)
"Trastuzumab HCDR3 variant ARSHYGYYDYYTDF (Fab, V domains shown) VH: EVQLVESGGGLVQPGGSLRLSCAASGFNIKDTYIHWVRQAPGKGLEWVARIYPTNGYTRYADSVKGRFTISADTSKNTAYLQMNSLRAEDTAVYYCARSHYGYYDYYTDFWGQGTLVTVSS VL: not shown",116 nM,-6.94 log(M)
"Trastuzumab HCDR3 variant ARYRGGYGGYVFDP (Fab, V domains shown) VH: EVQLVESGGGLVQPGGSLRLSCAASGFNIKDTYIHWVRQAPGKGLEWVARIYPTNGYTRYADSVKGRFTISADTSKNTAYLQMNSLRAEDTAVYYCARYRGGYGGYVFDPWGQGTLVTVSS VL: not shown",120 nM,-6.92 log(M)
"Trastuzumab HCDR3 variant ATWPHINTRIYAFDP (Fab, V domains shown) VH: EVQLVESGGGLVQPGGSLRLSCAASGFNIKDTYIHWVRQAPGKGLEWVARIYPTNGYTRYADSVKGRFTISADTSKNTAYLQMNSLRAEDTAVYYCATWPHINTRIYAFDPWGQGTLVTVSS VL: not shown",117 nM,-6.93 log(M)
"Trastuzumab HCDR3 variant VRGYGYNFYYHGFSY (Fab, V domains shown) VH: EVQLVESGGGLVQPGGSLRLSCAASGFNIKDTYIHWVRQAPGKGLEWVARIYPTNGYTRYADSVKGRFTISADTSKNTAYLQMNSLRAEDTAVYYCVRGYGYNFYYHGFSYWGQGTLVTVSS VL: not shown",147 nM and 146 nM,-6.83 log(M)
"Trastuzumab HCDR3 variant ARSGGHGVNGHWRSF (Fab, V domains shown) VH: EVQLVESGGGLVQPGGSLRLSCAASGFNIKDTYIHWVRQAPGKGLEWVARIYPTNGYTRYADSVKGRFTISADTSKNTAYLQMNSLRAEDTAVYYCARSGGHGVNGHWRSFWGQGTLVTVSS VL: not shown",49.8 nM,-7.3 log(M)
"Trastuzumab HCDR3 variant AYTGAPHGGYHYYAY (Fab, V domains shown) VH: EVQLVESGGGLVQPGGSLRLSCAASGFNIKDTYIHWVRQAPGKGLEWVARIYPTNGYTRYADSVKGRFTISADTSKNTAYLQMNSLRAEDTAVYYCAYTGAPHGGYHYYAYWGQGTLVTVSS VL: not shown",49.4 nM,-7.31 log(M)
